Data: PMC5300038

Target: 14-3-3ε (UniProt P62258)
Test: anti-Flag IP, anti-14-3-3ε Western blot
Conditions: reference: wild type; sites S274,S299

With PITPNC1 (from UniProt Q9UKF7) S274/299A as the substance, how does the “binding against the reference” value read?
The value was “weaker”.
